According to patent publication US20040072369A1, “Methods for assaying for urea and kits for use therein” (priority 2002, published 2004):
Substitutions are numbered along the chain they refer to. Names may count otherwise.

Key:
[1] = system: UreD-GFP fusion protein (urea-inducible ureD promoter); experiment: Urea induction of UreD-GFP fusion, Western blot with anti-GFP; format: cell-based, P. mirabilis HI4320; settings: 0-500 mM urea tested (FIG. 1)
Description: Thus, to investigate in vivo expression of P. mirabilis urease, the gene encoding green fluorescent protein (GFP) was used to construct reporter fusions. Translational fusions of urease accessory gene ureD, which is preceded by a urea-inducible promoter, were made with gfp (modified to express S65TIV68L/S72A, a well-known variant of gfp). The constructs were confirmed by sequencing of the fusion junctions. UreD-GFP fusion protein was induced by urea in both E. coli DH5a and P. mirabilis HI4320. Thereafter, Western blotting was carried out with antiserum raised against GFP.

[2] = system: ureD promoter (PureD-lacZ reporter construct); experiment: β-galactosidase reporter assay (PureD-lacZ) with UreR constructs; format: cell-based, E. coli Top10
Protocol: Cultures were grown to mid-log phase and induced with 0.2% (w/v) arabinose in the presence or absence of 100 mM urea for 90 min. All constructs were assayed in duplicate in five independent experiments.
More specifically, wild-type ureR was cloned into the NcoI/XhoI site of pBAD/MycHisA (Invitrogen) to create pCP016 (Poore et al, supra). This construct was used to create alanine mutants using overlapping PCR site-directed mutagenesis as described by Ho et al, Gene, 71:51-59 (1989); and Poore et al, supra. Full-length mutant ureR PCR products were then constructed by ligation into the NcoI/XhoI site of pBAD/MycHisA. Following PCR mutation to Ala, all of the cloned products in the pBAD vector were verified by sequencing. The constructs were then cotransformed with the reporter vector PureD-lacZ into E. coli Top10 (pCC142) (Invitrogen). The β-gal reporter construct pCC042 (tetR) carries a transcriptional fusion of the ureD promoter (pureD) and lacZ (Poore et al, supra). Unless otherwise stated, strains were cultured in Luria broth supplemented with ampicillin (100 μg/ml), kanamycin (50 μg/ml), or tetracycline (15 μg/ml) as required. Thereafter, activity was determined using a β-galactosidase reporter assay in the absence and presence of 100 mM urea.
More specifically, overnight cultures were diluted 1:10 into fresh medium supplemented with ampicillin. Mid-exponential cultures were induced with 0.2% (w/v) arabinose and either no urea or 100 mM urea for 1 h. Bacterial suspensions were placed on ice for 10 min and then permeabilized with 0.1% (w/v) SDS (50 μl) and chloroform (100 μl) at room temperature for 30 min. Aliquots (20-50 μl) were diluted to 1.0 ml in Z buffer comprising 200 μl o-nitrophenyl-β-D-galactopyranoside (4.0 mg/ml) and were incubated at room temperature. Timed reactions were stopped by addition of 1.0 M Na2CO3 (500 μl) and the optical densities at 420 nm and 550 nm were used to calculate Miller units for each assay (Platt et al, “Assays of β-galactosidase Activity”, In: Miller (ed.), Experiments in Molecular Genetics, Cold Spring Harbor Press, Cold Spring Harbor, N.Y., pages 352-355 (1972)). […] The results, which are shown in Table 1 below, are expressed as the average of at least three independent experiments.
The UreR Trp point mutants were confirmed by sequencing and were tested for the ability to induce β-galactosidase expression using the PureD-lacZ reporter assay in the presence of 100 mM urea as described above.

[3] = Trp emission spectra of purified nUreR Trp mutants titrated with urea; format: binding; settings: upon addition of urea (0-150 mM); excitation 280 nm; room temperature
Protocol: Protein samples (2.0 μM) in 50 mM PBS (pH 7.0), were excited at 280 nm at room temperature.
Three independent experiments were used to calculate the binding constant for this mutant. ΔTrp Emission is the difference in Trp emission intensity with and without urea. The binding constant was determined by fitting the data to the corresponding Hill parameters.
More specifically, Trp emission spectra were collected at room temperature using a Varian Cary Eclipse spectrofluorometer. Purified nUreR Trp mutants (5.0 μM) were excited at 280 nm and urea-dependent emission spectra were measured on the same sample following titration with increasing concentrations (0-150 mM) of urea.
The corresponding Hill parameters were invoked using the curve fitting functions packaged with the Microcal Origin 6.0 data analysis graphing program (Northampton, Mass.).
Trp fluorescence emission spectra from 300-450 nm were taken in the presence of increasing concentrations of urea (0, 0.05, 1, 10, 100 and 150 mM).

NC(N)=O [urea]
urea concentration giving highest induction of UreD-GFP [1]: 200 to 500 mM

B1: Y54W UreR (protein, UniProt Q02458 1-293, looked up, variant Y54W)
Urease operon transcriptional …: MEYKHILSSNQISLKTFYIENPMIAIVYGAKGEICINGQTITVTTNLTLIIPKWSQVSCDVTNFFPTKPIELHTLVLSETELQSVFSLLKPLIKSGAPITRHLPDYHLSTPEVVKTNFTLLQQCLPLEHGTPSQETLFMQQSLFFILLAVYHEGVDILNIFRFNYDEPKNQAITHLITQDPQRKWHLEDVAKTLYTTPSTLRRHLSKEGVSFCQLLLDVRMPIALNYLTFSNYSVFQISHRCGFGSNAYFCDAFKRKYGMTPSQFRTQSRQANDPNAIATMASQNDESIKKVF
fold induction in β-galactosidase activity ([2]; addition of 100 mM urea (FIG. 3)): 2.8 fold
β-galactosidase reporter activity compared to wild-type UreR ([2]; full-length UreR Trp point mutants, 100 mM urea (FIG. 3)): overall reduction in the level of activation

B2: Wild-type: wild-type P. mirabilis UreR expressed from pBAD/MycHisA (pCP016) (protein, UniProt Q02458 1-293, looked up)
Urease operon transcriptional …: B1 Urease operon transcriptional … with W54Y
modifications: Myc-His tag from pBAD/MycHisA
β-Galactosidase Activity (Miller units), 0 mM urea ([2]; 0 mM urea, 0.2% arabinose induction, average of at least three experiments): 632 ± 203 Miller units
β-Galactosidase Activity (Miller units), 100 mM urea ([2]; 100 mM urea, 0.2% arabinose induction, average of at least three experiments): 3709 ± 1570 Miller units

B3: Y151W nUreR (protein, UniProt Q02458 1-293, looked up, variant Y151W)
Urease operon transcriptional …: B1 Urease operon transcriptional … with W54Y, Y151W
% Decrease in Trp Emission [3]: 9 ± 2%
